We go through five substances from the supplement of paper PMC5998384.

The subject of series [1] is HeLa Kyoto. In words: solubility in G1/S (NP-40 vs SDS abundance) (log2 ratio); higher = more soluble. To be noted: cell cycle stage: G1/S.
The subject of series [2] is HeLa Kyoto. The series can be described thus: melting temperature (median over replicates), in situ; higher = more thermally stable.
The test system of series [3] is HeLa Kyoto. The series can be described thus: solubility change mitosis vs G1/S (difference of NP-40 vs SDS log2 ratios) (log2 ratio difference); higher = more soluble in mitosis.
Series [4] relates to HeLa Kyoto. The series can be described thus: thermal stability score vs G1/S (z-score of summed log2 fold changes over temperatures); higher = more thermally stable than in G1/S.
Setting [5] is: cell cycle stage: early G1 (4.5 h after nocodazole release).
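Wherever melting temperature (median over replicates), in situ is given: HeLa Kyoto cells synchronized by double thymidine or nocodazole block, proteins quantified by TMT10plex mass spectrometry, three independent biological replicates.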
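Wherever solubility change mitosis vs G1/S (difference of NP-40 vs SDS log2 ratios) is given: synchronized HeLa Kyoto cells (double thymidine block for G1/S, nocodazole release for mitosis), protein amounts in NP-40 versus SDS lysates quantified by mass spectrometry, three biological replicates.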
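Wherever solubility in G1/S (NP-40 vs SDS abundance) is given: HeLa Kyoto cells arrested at G1/S by double thymidine block, proteins quantified by TMT10plex mass spectrometry in mild NP-40 versus SDS extracts, three biological replicates.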
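Wherever thermal stability score vs G1/S (z-score of summed log2 fold changes over temperatures) is given: synchronized HeLa Kyoto cells, proteins quantified by TMT10plex mass spectrometry, three biological replicates, mitosis taken 0.5 h after nocodazole release, G1/S directly after double thymidine block.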

With “MTTSHQPQDRYKAVWLIFFMLGLGTLLPWNFFMTATQYFTNRLDMSQNVSLVTAELSKDAQASAAPAAPLPERNSLSAIFNNVMTLCAMLPLLLFTYLNSFLHQRIPQSVRILGSLVAILLVFLITAILVKVQLDALPFFVITMIKIVLINSFGAILQGSLFGLAGLLPASYTAPIMSGQGLAGFFASVAMICAIASGSELSESAFGYFITACAVIILTIICYLGLPRLEFYRYYQQLKLEGPGEQETKLDLISKGEEPRAGKEESGVSVSNSQPTNESHSIKAILKNISVLAFSVCFIFTITIGMFPAVTVEVKSSIAGSSTWERYFIPVSCFLTFNIFDWLGRSLTAVFMWPGKDSRWLPSLVLARLVFVPLLLLCNIKPRRYLTVVFEHDAWFIFFMAAFAFSNGYLASLCMCFGPKKVKPAEAETAGAIMAFFLCLGLALGAVFSFLFRAIV [SLC29A1]”, the “solubility in G1/S (log2)” value with HeLa Kyoto [1] was -0.149. Besides, the melting temperature worked out at 58.4 °C in the series with HeLa Kyoto [2] (cell cycle stage: G1/S) and 61.1 °C with HeLa Kyoto [2] (cell cycle stage: mitosis). Also, the “solubility change mitosis (log2)” value in the series with HeLa Kyoto [3] was -0.151. Further, the thermal stability score in the series with HeLa Kyoto [4] (setting [5]) came out at 1.53; with HeLa Kyoto [4] (cell cycle stage: mitosis), 0.495.

As for PKN1, the “solubility in G1/S (log2)” value in the series on HeLa Kyoto [1] worked out at 0.0374. The values for the melting temperature in the series on HeLa Kyoto [2] (cell cycle stage: G1/S) and in the series on HeLa Kyoto [2] (cell cycle stage: mitosis) were 49.9 °C and 50.6 °C, respectively. In addition, the “solubility change mitosis (log2)” value with HeLa Kyoto [3] was -0.112. For the same substance, the figures for the thermal stability score in the series with HeLa Kyoto [4] (setting [5]) and with HeLa Kyoto [4] (cell cycle stage: mitosis) were 0.284 and 0.47, respectively.

Consider “MAAASAVSVLLVAAERNRWHRLPSLLLPPRTWVWRQRTMKYTTATGRNITKVLIANRGEIACRVMRTAKKLGVQTVAVYSEADRNSMHVDMADEAYSIGPAPSQQSYLSMEKIIQVAKTSAAQAIHPGCGFLSENMEFAELCKQEGIIFIGPPPSAIRDMGIKSTSKSIMAAAGVPVVEGYHGEDQSDQCLKEHARRIGYPVMIKAVRGGGGKGMRIVRSEQEFQEQLESARREAKKSFNDDAMLIEKFVDTPRHVEVQVFGDHHGNAVYLFERDCSVQRRHQKIIEEAPAPGIKSEVRKKLGEAAVRAAKAVNYVGAGTVEFIMDSKHNFCFMEMNTRLQVEHPVTEMITGTDLVEWQLRIAAGEKIPLSQEEITLQGHAFEARIYAEDPSNNFMPVAGPLVHLSTPRADPSTRIETGVRQGDEVSVHYDPMIAKLVVWAADRQAALTKLRYSLRQYNIVGLHTNIDFLLNLSGHPEFEAGNVHTDFIPQHHKQLLLSRKAAAKESLCQAALGLILKEKAMTDTFTLQAHDQFSPFSSSSGRRLNISYTRNMTLKDGKNNVAIAVTYNHDGSYSMQIEDKTFQVLGNLYSEGDCTYLKCSVNGVASKAKLIILENTIYLFSKEGSIEIDIPVPKYLSSVSSQETQGGPLAPMTGTIEKVFVKAGDKVKAGDSLMVMIAMKMEHTIKSPKDGTVKKVFYREGAQANRHTPLVEFEEEESDKRESE [MCCC1]”, for which, in the series with HeLa Kyoto [1], the “solubility in G1/S (log2)” value is -0.0598. The results for the melting temperature in the series with HeLa Kyoto [2] (cell cycle stage: G1/S) and in the series with HeLa Kyoto [2] (cell cycle stage: mitosis) were 51.4 °C and 51.3 °C, respectively. Besides, the “solubility change mitosis (log2)” value with HeLa Kyoto [3] was -0.125. Moreover, the values for the thermal stability score in the series with HeLa Kyoto [4] (setting [5]) and in the series with HeLa Kyoto [4] (cell cycle stage: mitosis) were -0.414 and -0.17, respectively.

Regarding “MAGRGGAARPNGPAAGNKICQFKLVLLGESAVGKSSLVLRFVKGQFHEYQESTIGAAFLTQTVCLDDTTVKFEIWDTAGQERYHSLAPMYYRGAQAAIVVYDITNTDTFARAKNWVKELQRQASPNIVIALAGNKADLASKRAVEFQEAQAYADDNSLLFMETSAKTAMNVNEIFMAIAKKLPKNEPQNATGAPGRNRGVDLQENNPASRSQCCSN [RAB5C]”, in the series with HeLa Kyoto [1], the “solubility in G1/S (log2)” value was determined as 0.382. The melting temperature stood at 58.7 °C in the series on HeLa Kyoto [2] (cell cycle stage: G1/S) and 59.4 °C in the series on HeLa Kyoto [2] (cell cycle stage: mitosis). Besides, the “solubility change mitosis (log2)” value with HeLa Kyoto [3] is -0.161. For the same substance, the thermal stability score is -2.16 with HeLa Kyoto [4] (setting [5]) and -3.11 in the series with HeLa Kyoto [4] (cell cycle stage: mitosis).

As for “MDAKARNCLLQHREALEKDIKTSYIMDHMISDGFLTISEEEKVRNEPTQQQRAAMLIKMILKKDNDSYVSFYNALLHEGYKDLAALLHDGIPVVSSSSGKDSVSGITSYVRTVLCEGGVPQRPVVFVTRKKLVNAIQQKLSKLKGEPGWVTIHGMAGCGKSVLAAEAVRDHSLLEGCFPGGVHWVSVGKQDKSGLLMKLQNLCTRLDQDESFSQRLPLNIEEAKDRLRILMLRKHPRSLLILDDVWDSWVLKAFDSQCQILLTTRDKSVTDSVMGPKYVVPVESSLGKEKGLEILSLFVNMKKADLPEQAHSIIKECKGSPLVVSLIGALLRDFPNRWEYYLKQLQNKQFKRIRKSSSYDYEALDEAMSISVEMLREDIKDYYTDLSILQKDVKVPTKVLCILWDMETEEVEDILQEFVNKSLLFCDRNGKSFRYYLHDLQVDFLTEKNCSQLQDLHKKIITQFQRYHQPHTLSPDQEDCMYWYNFLAYHMASAKMHKELCALMFSLDWIKAKTELVGPAHLIHEFVEYRHILDEKDCAVSENFQEFLSLNGHLLGRQPFPNIVQLGLCEPETSEVYQQAKLQAKQEVDNGMLYLEWINKKNITNLSRLVVRPHTDAVYHACFSEDGQRIASCGADKTLQVFKAETGEKLLEIKAHEDEVLCCAFSTDDRFIATCSVDKKVKIWNSMTGELVHTYDEHSEQVNCCHFTNSSHHLLLATGSSDCFLKLWDLNQKECRNTMFGHTNSVNHCRFSPDDKLLASCSADGTLKLWDATSANERKSINVKQFFLNLEDPQEDMEVIVKCCSWSADGARIMVAAKNKIFLFDIHTSGLLGEIHTGHHSTIQYCDFSPQNHLAVVALSQYCVELWNTDSRSKVADCRGHLSWVHGVMFSPDGSSFLTSSDDQTIRLWETKKVCKNSAVMLKQEVDVVFQENEVMVLAVDHIRRLQLINGRTGQIDYLTEAQVSCCCLSPHLQYIAFGDENGAIEILELVNNRIFQSRFQHKKTVWHIQFTADEKTLISSSDDAEIQVWNWQLDKCIFLRGHQETVKDFRLLKNSRLLSWSFDGTVKVWNIITGNKEKDFVCHQGTVLSCDISHDATKFSSTSADKTAKIWSFDLLLPLHELRGHNGCVRCSAFSVDSTLLATGDDNGEIRIWNVSNGELLHLCAPLSEEGAATHGGWVTDLCFSPDGKMLISAGGYIKWWNVVTGESSQTFYTNGTNLKKIHVSPDFKTYVTVDNLGILYILQTLE [APAF1]”, the “solubility in G1/S (log2)” value with HeLa Kyoto [1] is -0.414. Besides, the melting temperature is 51.2 °C in the series with HeLa Kyoto [2] (cell cycle stage: G1/S) and 49.7 °C in the series with HeLa Kyoto [2] (cell cycle stage: mitosis). The “solubility change mitosis (log2)” value in the series with HeLa Kyoto [3] is -0.0529. In addition, the values for the thermal stability score in the series on HeLa Kyoto [4] (setting [5]) and in the series with HeLa Kyoto [4] (cell cycle stage: mitosis) were -0.116 and 0.0498, respectively.
